Assay results as given in the RNAGym collection of RNA variant scans (doi:10.1073/pnas.2313332121).
This sample holds only a part of the variants without activity.

B1: TPR 5TU (parent)
chain: GGAUCUUCUCGAUCUAACAAAAAAGACAAAUCUGCCACAAAGCUUGAGAGCAUCUUCGGAUGCAGAGGCGGCAGCCUUCGGUGGCGCGAUAGCGCCAACGUUCUCAACUAUGACACGCAAAACGCGUGCUCCGUUGAAUGGAGUUUAUCAUG

Variants of: B1
Assay: polymerase ribozyme fitness, log enrichment relative to wild type (log ratio); higher = more active; in vitro selection for triplet polymerase activity
Method in brief: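 Genotype fitness is the logarithm of its enrichment divided by wild-type enrichment, using inverse-variance-weighted averages of replicates. That logarithm is base 2. Enrichment was measured by Illumina sequencing of input and output libraries from one triplicate in vitro selection round, with frozen incubation at −7 °C, on PCR-built, transcribed mutant libraries of each subunit of a heterodimeric triplet polymerase ribozyme, retaining genotypes with ≥10 input reads and ≥1 read per output.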

| Variant | polymerase ribozyme fitness (log ratio) |
| --- | --- |
| A23U A24U A73G G88A A91C C114U | ≤ -4.2 |
| A24G A40U U61C A137C A142C | ≤ -4.2 |
| A24C U55A A60G A97U | ≤ -4.2 |
| A24G C27U G42C U55G | ≤ -4.2 |
| A23U U56A C93A U101G U127A A137U U139A C149A | ≤ -4.2 |
| A22U G83C G86U C108A C129U | ≤ -4.2 |
| G25A A39G G68C C95U | ≤ -4.2 |
| A24U G83C C99G | -4.19 |
| A22U U55A U56A A97U | -0.631 |
| G25C A91U C96U C99A C108A A138G | ≤ -4.2 |
| A24U A40G C57A C96A C99U U134A | ≤ -4.2 |
| A24C G71A U135C U146C U148A | ≤ -4.2 |
| G25U C87U | -2.63 |
| A22U U61G G86A U104G | ≤ -4.2 |
| A23G C27G A40G U61A C131G G143U | ≤ -4.2 |
| A23U U56A | -3.49 |
| A23U G48A A113G A120U | ≤ -4.2 |
| A23U U53A U55G C95U C103U C114U G126A G136U A150U | ≤ -4.2 |
| G25A C75A A91U | ≤ -4.2 |
| A23C C72U C87A C96U C105U | ≤ -4.2 |
| A24U A30C G48U A60G G94C U109G A113U | ≤ -4.2 |
| A23C U53A C57U C96G C103G | ≤ -4.2 |
| A24G C54U | -2.83 |
| A24U U44A C57G G74U C76A G100A A138C | ≤ -4.2 |

| Variant | polymerase ribozyme fitness (log ratio) |
| --- | --- |
| G25U G68U G83U U104G A115C | ≤ -4.2 |
| A24U U78C C87A | ≤ -4.2 |
| A23G C96U | -2.56 |
| A23C G25C C32U A52C C85A | ≤ -4.2 |
| A26C A39G G42U A60G U78C C93G G117A | ≤ -4.2 |
| A23U C93G | ≤ -4.2 |
| G25A C35U G50C G88U C118G U151G | ≤ -4.2 |
| A26C G59U A60C U145A | -2.83 |
| A24G A26U C38U A47U C85U C116U C125A | ≤ -4.2 |
| G25U G59U C93G C96U U134C | ≤ -4.2 |
| G25U C43U U53A C87A A91C G140A | ≤ -4.2 |
| A22U G81A C125A | -0.142 |
| A23G A41C U44C A49C G58C A64C C85U A138G | ≤ -4.2 |
| A24G C38U | ≤ -4.2 |
| A22U G84A | -0.556 |
| A24C U56C A64C C96U | ≤ -4.2 |
| A24C U31C U33G C76G C85U C125G | ≤ -4.2 |
| A26G A41G A60U U90G C99A G143U U151C | ≤ -4.2 |
| A23U C76A | -3.84 |
| G25C A28U C54U G83A C99U G124A | ≤ -4.2 |
| G25U G58U C69A G71C G94U G100C | ≤ -4.2 |
| A24U C27A G42C C75A U82G C96U C108A A138C | ≤ -4.2 |
| A26C U61A | -3.34 |
| A24U C114G | -3.34 |

| Variant | polymerase ribozyme fitness (log ratio) |
| --- | --- |
| A24C G48C C118G | ≤ -4.2 |
| A24G U55A C57U A73U U82G G92A A97U G141C | ≤ -4.2 |
| G25U C116U A122U | -4.04 |
| G25C U33G G59A U78A G92C C99A G100U U134A | ≤ -4.2 |
| A23U C118U | -3.62 |
| A24C C87U | -3.57 |
| A24C C38A U77A G84C A89U | ≤ -4.2 |
| A24U A39U U56A G94A | -3.21 |
| A24G C79A C96A G141A | ≤ -4.2 |
| A26G A37U C75U G92A G133C G143U | ≤ -4.2 |
| A23G C32G A52U C85A U102G U127G | ≤ -4.2 |
| G25A A29C A40U G68C C93A A97U | ≤ -4.2 |
| G25C G42C C57U G70A C87A G143A | ≤ -4.2 |
| A24G G70C C79U C95A C96G | ≤ -4.2 |
| A24U A40C A47U C69U C93U C118U U145A | -4.16 |
| A24C A52G G84C G88U C95U C96U U102G | ≤ -4.2 |
| A23G G58A C87U A121C | -3.82 |
| A23G U90G C93A A107U | ≤ -4.2 |
| G25C G46A G50U G83A C95A A97G U127G | ≤ -4.2 |
| A26C C85G C118A | -3.99 |
| A24C C43A U45A | ≤ -4.2 |
| A24U A52C U56A A73G C93U | -3.52 |
| A24U A39G U82A C95G U135A | -3.89 |
| A24G C87U | -2.3 |

| Variant | polymerase ribozyme fitness (log ratio) |
| --- | --- |
| G25U A41U | -3 |
| G25U A41G | -0.833 |
| G25U C36G A97G U109C | ≤ -4.2 |
| G25C A64U C125G | ≤ -4.2 |
| A24C U56A G86A A150G | ≤ -4.2 |
| A24U A39U A89C | -4.16 |
| G25C A119C G136A | -3.75 |
| A23C C27U A47C C57A A73G A91G U101G U134A | ≤ -4.2 |
| A23U A39G A91C | ≤ -4.2 |
| A23G U127G | ≤ -4.2 |
| A26G A97G | -3.72 |
| A24U A47U G50A G59U A60G C87U C103G U109A A110G | -4.01 |
| G25C A28C C32A A110G G126C | ≤ -4.2 |
| A23G C54G U56A A138U G140U U146C | ≤ -4.2 |
| A23C A30C A52C C95U U144A | ≤ -4.2 |
| A23C G50U C76U C79A C85U C99G | ≤ -4.2 |
| A24C U44A G50U U55A | ≤ -4.2 |
| A23U C43U A73U C85A A97C C105G G140U | ≤ -4.2 |
| A26C C123G G141U | -2.47 |
| A26C U56C G65A C75U A91U C96U | ≤ -4.2 |
| A23G A24U G58A A60G C85G U101A G128A U130C U144G | ≤ -4.2 |
| A23U A30C C35A A106C | ≤ -4.2 |
| G25A A40G C43U G62C C85U G86A C95A G133U | ≤ -4.2 |
| A26C G65C G84A A89C G141C | ≤ -4.2 |

| Variant | polymerase ribozyme fitness (log ratio) |
| --- | --- |
| A22U U45A C57U G58A G59U C87A | ≤ -4.2 |
| A23U C54U C57U G68A C87A A91G G133U | ≤ -4.2 |
| A24U A52U C95U | -1.25 |
| A23U G48A C87G U104C | ≤ -4.2 |
| A24G U90C C123G G136C A147G | ≤ -4.2 |
| A24C U31C G68U U78C C85U | ≤ -4.2 |
| G25C G83A A107C U134G | ≤ -4.2 |
| A24U U61A C93U U101C | -3.93 |
| A23U A24U U56A A106C A150U | -3.89 |
| A26C U61C C85A U151G | ≤ -4.2 |
| A24U A98G | 0.444 |
| A24C G42C G50U A91U C103A U134A | ≤ -4.2 |
| A24U A30C C38U U45A G92U | ≤ -4.2 |
| G25U C36U C54G | -4.13 |
| A23C U56A G81A U90A C95G G143U | ≤ -4.2 |
| G25U A26G C32G C85G A106G C129U G140C G143A | ≤ -4.2 |
| A26C G58C A60U G71C C93G | ≤ -4.2 |
| A24G G88U | ≤ -4.2 |
| A23U A28G C87U U145A | ≤ -4.2 |
| A24U C85G | -2.77 |
| A24U C85A | -1.22 |
| A23C A24U U61C G83A G112U U127G | ≤ -4.2 |
| A23C G81A A91U G143A | ≤ -4.2 |
| A26C C27U C57A G68C C131G | ≤ -4.2 |

| Variant | polymerase ribozyme fitness (log ratio) |
| --- | --- |
| A23C U53C G58U G94C A115U C129U | ≤ -4.2 |
| A26C G92U A106G | -0.538 |
| A24G U55A | -3.22 |
| A24G A60G G68A G86C G124C | ≤ -4.2 |
| G25U A49U C93U A119C | -3.95 |
| A23C A26C A52U C63A C131U G141U U145C | ≤ -4.2 |
| A24U A26G C51U A64U A66C C69U C108A C123A | ≤ -4.2 |
| A22U U53A G92A G141A | -3.56 |
| A23G C103A | -3.88 |
| A26C A41U | -3.05 |
| A23G C76U C85A | ≤ -4.2 |
| A23C U55A | -3.85 |
| A23U G74U A91U | ≤ -4.2 |
| G25U U53A A91C G92A C105G G141C | ≤ -4.2 |
| G25A C85A C95U | -2.49 |
| A23U A52C | ≤ -4.2 |
| A24G C27U U31A A47C U77C C85U U102C U144C | ≤ -4.2 |
| A26C C131U | -0.797 |
| A24U C57G G92U A147U | -0.341 |
| A24G G83C | -3.62 |
| A23U A40U C51U U78G | ≤ -4.2 |
| A26G A41G U53A G74A G141A | ≤ -4.2 |
| A23C A41C C85A U90G G124U U135G | ≤ -4.2 |
| G25C G48U U55A C85U A147C | -3.98 |

| Variant | polymerase ribozyme fitness (log ratio) |
| --- | --- |
| G25U A37G C85A U148C | ≤ -4.2 |
| A26C C38A G48U C63G C75U C87A C105A | ≤ -4.2 |
| A26C G50A G67A G70C G83U C87U U90C | ≤ -4.2 |
| A24U C76A C85A | -1.65 |
| G25U G62A | -2.84 |
| A26G A40C G68U | ≤ -4.2 |
| A24G C27A G84U G86A C131A | ≤ -4.2 |
| A23U G42A C51U G71A G94A U101G | ≤ -4.2 |
| A24G A52C A110U | ≤ -4.2 |
| A24U G34C U56A G84A G133A | -3.92 |
| A24U U31C C38U U82A G84A | 0.365 |
| A24U A28C C76A U82A C99U C118U G141C | ≤ -4.2 |
| A23G C54A | -3.28 |
| A22U U44A U45A A122G G140C G143U U146C | ≤ -4.2 |
| A23U C27U U33G G42U G86U U101A G152A | ≤ -4.2 |
| A24G C123U G140C | ≤ -4.2 |
| A23U A28G C32G C85U G128U C129A U146G | -4.14 |
| A23G G46A C87U C132G | ≤ -4.2 |
| G25U A28C G50C A52C C93G | ≤ -4.2 |
| A24C C87A A106G U135C | ≤ -4.2 |
| A23C C35U G65A A66U C76A U78G | ≤ -4.2 |
| G25A U44G C85U A106C | ≤ -4.2 |
| A24G A40U C43U A49C G84A G100U G124A C125G U145G | ≤ -4.2 |
